# Measured values: publication PMC11281603
# Molecular target: polymeric Ig receptor (pIgR) fused to the FLAG tag (UniProt P01833)
# Conditions: parent: 1.00
# Chain of UniProt P01833 (P01833 19-764): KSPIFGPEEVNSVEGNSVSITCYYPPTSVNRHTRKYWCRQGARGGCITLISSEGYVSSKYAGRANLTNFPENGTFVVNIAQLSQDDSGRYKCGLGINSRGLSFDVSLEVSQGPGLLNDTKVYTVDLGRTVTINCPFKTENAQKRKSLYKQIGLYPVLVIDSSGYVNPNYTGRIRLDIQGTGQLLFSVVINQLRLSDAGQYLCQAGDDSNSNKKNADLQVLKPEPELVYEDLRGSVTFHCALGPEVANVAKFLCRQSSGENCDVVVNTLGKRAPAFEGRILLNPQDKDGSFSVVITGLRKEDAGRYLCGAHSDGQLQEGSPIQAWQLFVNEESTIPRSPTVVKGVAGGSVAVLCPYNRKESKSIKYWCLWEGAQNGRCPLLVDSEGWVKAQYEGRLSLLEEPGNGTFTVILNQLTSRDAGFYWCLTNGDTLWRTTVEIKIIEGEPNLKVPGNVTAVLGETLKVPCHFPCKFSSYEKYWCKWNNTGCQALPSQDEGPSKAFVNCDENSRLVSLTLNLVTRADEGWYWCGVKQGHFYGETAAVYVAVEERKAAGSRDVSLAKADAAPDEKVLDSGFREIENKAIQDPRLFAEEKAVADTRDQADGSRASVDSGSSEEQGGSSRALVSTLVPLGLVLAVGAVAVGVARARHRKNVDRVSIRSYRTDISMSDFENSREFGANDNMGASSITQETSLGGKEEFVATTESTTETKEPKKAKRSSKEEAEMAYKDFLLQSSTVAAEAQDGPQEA
substance,measurement,value
WT SARS-CoV-2 ORF8 fused to a C-terminal Strep-II tag (from UniProt P0DTC8) R115A,ratio to parent,1
WT SARS-CoV-2 ORF8 fused to a C-terminal Strep-II tag (from UniProt P0DTC8) C20A,ratio to parent,0.43
